Results from patent US20220010021A1 (Sanofi, published 2022).
Where a chain is given by its changes, count along the chain named. Numbers in names are those of the source.

T1: human beta-Klotho (KLB) (human, UniProt Q86Z14 53-997)
T1 construct: Bought soluble protein; also called human KLB; ß-Klotho
T1 sequence (looked up): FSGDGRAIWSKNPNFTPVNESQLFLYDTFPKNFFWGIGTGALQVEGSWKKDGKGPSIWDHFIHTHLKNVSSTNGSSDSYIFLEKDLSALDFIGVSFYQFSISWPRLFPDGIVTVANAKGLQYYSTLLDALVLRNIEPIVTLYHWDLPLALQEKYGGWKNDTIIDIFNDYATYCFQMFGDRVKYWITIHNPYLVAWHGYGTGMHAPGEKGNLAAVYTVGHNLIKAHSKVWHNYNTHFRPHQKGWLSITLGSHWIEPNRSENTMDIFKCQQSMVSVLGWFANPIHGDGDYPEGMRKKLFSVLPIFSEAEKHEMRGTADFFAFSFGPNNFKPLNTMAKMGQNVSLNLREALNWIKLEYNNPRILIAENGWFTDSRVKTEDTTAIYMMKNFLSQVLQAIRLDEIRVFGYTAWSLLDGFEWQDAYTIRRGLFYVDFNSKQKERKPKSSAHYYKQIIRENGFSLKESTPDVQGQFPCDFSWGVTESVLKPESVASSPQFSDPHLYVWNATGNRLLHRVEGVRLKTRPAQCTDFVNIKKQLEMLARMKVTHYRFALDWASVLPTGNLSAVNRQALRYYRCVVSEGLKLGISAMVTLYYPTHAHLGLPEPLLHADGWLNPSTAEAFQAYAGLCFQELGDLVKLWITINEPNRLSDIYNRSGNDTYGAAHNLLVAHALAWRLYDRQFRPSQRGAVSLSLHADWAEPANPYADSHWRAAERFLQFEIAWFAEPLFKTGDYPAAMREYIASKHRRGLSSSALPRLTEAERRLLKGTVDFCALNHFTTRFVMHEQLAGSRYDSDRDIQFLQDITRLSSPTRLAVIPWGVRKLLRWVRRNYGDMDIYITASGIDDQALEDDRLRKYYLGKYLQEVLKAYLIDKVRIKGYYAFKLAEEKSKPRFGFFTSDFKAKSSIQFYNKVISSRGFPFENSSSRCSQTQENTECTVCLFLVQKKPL

T2: human beta-Klotho (KLB) (human, UniProt Q86Z14 53-997)
T2 construct: bought protein, used as analyte in the off-rate screening; also called human KLB; β-Klotho
T2 sequence (looked up): T1 sequence (looked up)

B1: 16H7 light chain variant S31T (antibody, V domains shown)
VH: not shown
VL: SYVLTQPPSVSVAPGQTARITCGGNNIGSETVHWYQQKPGQAPVLVVYDDSDRPSGIPERFSGSNSGNTATLTISRVEAGDEADYYCQVWDGNSDHVVFGGGTKLTVLG
notes: copies: 2 + 2
B2: 16H7 light chain variant S31W (antibody, human IgG4 S228P, lambda, V domains shown)
VH: not shown
VL: B1 VL with T31W
B3: 16H7 light chain variant S31V (antibody, human IgG4 S228P, lambda, V domains shown)
VH: not shown
VL: B1 VL with T31V
B4: 16H7 variant with light chain substitution P54R (antibody, V domains shown)
VH: not shown
VL: B1 VL with T31S, P54R
B5: 16H7 variant with light chain substitution D52G (antibody, V domains shown)
VH: not shown
VL: B1 VL with T31S, D52G
B6: 16H7 variant with light chain substitution D52K (antibody, V domains shown)
VH: not shown
VL: B1 VL with T31S, D52K
B7: 16H7 variant with light chain substitution P54T (antibody, V domains shown)
VH: not shown
VL: B1 VL with T31S, P54T
B8: 16H7 variant with light chain substitution D52T (antibody, V domains shown)
VH: not shown
VL: B1 VL with T31S, D52T
B9: 16H7 variant with light chain substitution P54V (antibody, V domains shown)
VH: not shown
VL: B1 VL with T31S, P54V
B10: 16H7 variant with light chain substitution P54C (antibody, V domains shown)
VH: not shown
VL: B1 VL with T31S, P54C
B11: 16H7 variant with light chain substitution D52N (antibody, V domains shown)
VH: not shown
VL: B1 VL with T31S, D52N
B12: 16H7 variant with light chain substitution P54G (antibody, V domains shown)
VH: not shown
VL: B1 VL with T31S, P54G
B13: 16H7 variant with light chain substitution D52L (antibody, V domains shown)
VH: not shown
VL: B1 VL with T31S, D52L
B14: 16H7 variant with light chain substitution P54L (antibody, V domains shown)
VH: not shown
VL: B1 VL with T31S, P54L
B15: 16H7 variant with light chain substitution P54H (antibody, V domains shown)
VH: not shown
VL: B1 VL with T31S, P54H
B16: 16H7 variant with light chain substitution D52Q (antibody, V domains shown)
VH: not shown
VL: B1 VL with T31S, D52Q
B17: 16H7 variant with light chain substitution D52V (antibody, V domains shown)
VH: not shown
VL: B1 VL with T31S, D52V
B18: 16H7 variant with light chain substitution D52M (antibody, V domains shown)
VH: not shown
VL: B1 VL with T31S, D52M
B19: 16H7 variant with light chain substitution D52A (antibody, V domains shown)
VH: not shown
VL: B1 VL with T31S, D52A
B20: 16H7 variant with light chain substitution D52H (antibody, V domains shown)
VH: not shown
VL: B1 VL with T31S, D52H
B21: 16H7 variant with light chain substitution D52R (antibody, V domains shown)
VH: not shown
VL: B1 VL with T31S, D52R
B22: 16H7 variant with light chain substitution P54M (antibody, V domains shown)
VH: not shown
VL: B1 VL with T31S, P54M
B23: 16H7 variant with light chain substitution P54D (antibody, V domains shown)
VH: not shown
VL: B1 VL with T31S, P54D
B24: 16H7 variant with light chain substitution D52F (antibody, V domains shown)
VH: not shown
VL: B1 VL with T31S, D52F
B25: 16H7 variant with light chain substitution P54I (antibody, V domains shown)
VH: not shown
VL: B1 VL with T31S, P54I
B26: 16H7 variant with light chain substitution P54F (antibody, V domains shown)
VH: not shown
VL: B1 VL with T31S, P54F
B27: 16H7 variant with light chain substitution P54N (antibody, V domains shown)
VH: not shown
VL: B1 VL with T31S, P54N
B28: 16H7 variant with light chain substitution D52I (antibody, V domains shown)
VH: not shown
VL: B1 VL with T31S, D52I
B29: 16H7 variant with light chain substitution D52Y (antibody, V domains shown)
VH: not shown
VL: B1 VL with T31S, D52Y
B30: 16H7 variant with light chain substitution D52E (antibody, V domains shown)
VH: not shown
VL: B1 VL with T31S, D52E
B31: 16H7 variant with light chain substitution P54K (antibody, V domains shown)
VH: not shown
VL: B1 VL with T31S, P54K
B32: 16H7 variant with light chain substitution D52S (antibody, V domains shown)
VH: not shown
VL: B1 VL with T31S, D52S
B33: 16H7 variant with light chain substitution P54S (antibody, V domains shown)
VH: not shown
VL: B1 VL with T31S, P54S

target: cell surface receptor composed of FGFR1c and co-receptor beta-Klotho (KLB) (human, UniProt P11362 22-822; Q86Z14 1-1044); assay: cell-based or functional assay
Sequence (P11362 22-822, chain 1 of 2): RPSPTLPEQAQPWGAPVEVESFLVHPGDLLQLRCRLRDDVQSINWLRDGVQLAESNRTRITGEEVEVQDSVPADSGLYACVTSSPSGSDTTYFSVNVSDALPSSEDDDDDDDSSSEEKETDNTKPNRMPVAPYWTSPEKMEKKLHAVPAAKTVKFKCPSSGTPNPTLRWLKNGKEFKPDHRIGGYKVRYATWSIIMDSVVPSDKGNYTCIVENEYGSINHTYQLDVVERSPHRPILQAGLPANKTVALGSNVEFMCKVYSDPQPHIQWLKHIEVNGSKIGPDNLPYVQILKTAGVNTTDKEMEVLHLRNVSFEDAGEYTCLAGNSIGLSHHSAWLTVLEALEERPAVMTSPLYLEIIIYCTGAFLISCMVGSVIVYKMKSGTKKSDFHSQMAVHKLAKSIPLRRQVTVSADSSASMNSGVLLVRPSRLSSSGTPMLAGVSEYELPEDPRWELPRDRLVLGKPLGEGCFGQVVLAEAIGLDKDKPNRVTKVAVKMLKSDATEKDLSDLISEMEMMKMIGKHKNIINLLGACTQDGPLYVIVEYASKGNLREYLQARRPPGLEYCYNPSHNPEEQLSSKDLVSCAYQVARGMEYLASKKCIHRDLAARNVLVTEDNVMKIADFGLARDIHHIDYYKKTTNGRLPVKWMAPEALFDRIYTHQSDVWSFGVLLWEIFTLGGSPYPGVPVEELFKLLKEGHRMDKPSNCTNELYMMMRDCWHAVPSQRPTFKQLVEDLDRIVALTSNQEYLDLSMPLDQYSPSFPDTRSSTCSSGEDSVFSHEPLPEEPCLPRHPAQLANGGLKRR
Sequence (Q86Z14 whole entry, chain 2 of 2): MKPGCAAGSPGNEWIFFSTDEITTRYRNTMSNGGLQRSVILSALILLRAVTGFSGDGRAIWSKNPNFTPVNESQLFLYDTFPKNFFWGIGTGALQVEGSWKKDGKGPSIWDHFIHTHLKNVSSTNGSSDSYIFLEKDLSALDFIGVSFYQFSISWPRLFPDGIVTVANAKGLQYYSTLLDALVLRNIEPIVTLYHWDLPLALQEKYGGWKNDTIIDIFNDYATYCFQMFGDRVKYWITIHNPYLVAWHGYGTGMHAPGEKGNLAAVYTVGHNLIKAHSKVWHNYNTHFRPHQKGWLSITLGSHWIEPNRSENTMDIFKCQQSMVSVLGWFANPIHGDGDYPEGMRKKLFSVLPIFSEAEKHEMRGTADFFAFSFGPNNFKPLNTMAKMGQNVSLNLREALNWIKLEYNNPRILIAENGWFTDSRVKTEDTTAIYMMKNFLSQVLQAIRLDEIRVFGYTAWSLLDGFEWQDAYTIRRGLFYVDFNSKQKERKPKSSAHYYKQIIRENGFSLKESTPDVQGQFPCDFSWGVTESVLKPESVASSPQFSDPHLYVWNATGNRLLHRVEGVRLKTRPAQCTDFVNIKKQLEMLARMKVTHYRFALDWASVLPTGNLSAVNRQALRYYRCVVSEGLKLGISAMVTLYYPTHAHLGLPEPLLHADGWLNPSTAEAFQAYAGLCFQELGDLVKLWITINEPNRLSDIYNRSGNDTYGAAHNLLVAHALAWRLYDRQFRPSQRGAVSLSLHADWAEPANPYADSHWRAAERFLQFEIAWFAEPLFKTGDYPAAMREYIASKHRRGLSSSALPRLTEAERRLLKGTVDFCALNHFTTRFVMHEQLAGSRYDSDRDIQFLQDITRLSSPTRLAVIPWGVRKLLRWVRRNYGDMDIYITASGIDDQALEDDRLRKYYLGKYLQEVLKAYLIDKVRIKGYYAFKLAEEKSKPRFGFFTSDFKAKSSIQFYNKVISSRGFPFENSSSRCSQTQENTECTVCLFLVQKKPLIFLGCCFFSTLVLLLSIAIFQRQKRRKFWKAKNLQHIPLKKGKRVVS
For Mean E max (%) in this document: reference of the scale not given here.
For Mean E max, Luciferase reporter gene assay in this document: reference of the scale not given here.

Binder	Mean E max, Luciferase reporter gene assay	Mean EC50, Luciferase reporter gene assay
B1	101%	108 pM
B2	103%	178 pM
B3	100%	106 pM

target: human FGFR1c/KLB receptor complex on iLite FGF21 Assay Ready Cells (human, UniProt P11362 22-822; Q86Z14 1-1044); assay: cell-based or functional assay
Sequence (P11362 22-822, chain 1 of 2): as the sequence (P11362 22-822, chain 1 of 2) above
Sequence (Q86Z14 whole entry, chain 2 of 2): as the sequence (Q86Z14 whole entry, chain 2 of 2) above

Binder	Mean E max (%)	Mean EC50
B4	104%	111 pM
B5	109%	125 pM
B6	101%	117 pM
B7	108%	113 pM
B8	100%	109 pM
B9	109%	110 pM
B10	100%	116 pM
B11	115%	124 pM
B12	114%	141 pM
B13	106%	107 pM
B14	108%	133 pM
B15	100%	111 pM
B16	101%	107 pM
B17	114%	125 pM
B18	105%	144 pM
B19	101%	163 pM
B20	97%	109 pM
B21	96%	91 pM
B22	98%	87 pM
B23	96%	115 pM
B24	102%	105 pM
B25	112%	115 pM
B26	105%	143 pM
B27	105%	150 pM
B28	110%	140 pM
B29	102%	110 pM
B30	123%	114 pM
B31	100%	131 pM
B32	108%	98 pM
B33	102%	103 pM

target: T1, human beta-Klotho (KLB); assay: BLI off-rate screen, supernatant;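 also: expression supernatants tested at 25 µg/mL, dissociation followed for 1800 s in D-PBS with 0.1% BSA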

Binder	koff
B1	0.00011 s⁻¹
B2	0.00034 s⁻¹
B3	6.6e-05 s⁻¹

target: T2, human beta-Klotho (KLB); assay: BLI off-rate screening, mAb captured, KLB analyte;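 also: Off-rate taken from the dissociation phase, biosensors held in D-PBS with 0.1% BSA over 1800 s, antibody supernatants diluted to 25 µg/mL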

Binder	koff
B4	0.00011 s⁻¹
B5	3.7e-05 s⁻¹
B6	9.2e-05 s⁻¹
B7	0.00018 s⁻¹
B8	1.8e-05 s⁻¹
B9	4.1e-05 s⁻¹
B10	0.00012 s⁻¹
B11	6.9e-07 s⁻¹
B12	5.1e-05 s⁻¹
B13	5.7e-05 s⁻¹
B14	9.6e-05 s⁻¹
B15	0.00014 s⁻¹
B16	2.7e-05 s⁻¹
B17	6.9e-05 s⁻¹
B18	2.4e-05 s⁻¹
B19	4.8e-05 s⁻¹
B20	3.6e-05 s⁻¹
B21	2.9e-05 s⁻¹
B22	3.2e-05 s⁻¹
B23	0.00028 s⁻¹
B24	7.9e-06 s⁻¹
B25	3.5e-05 s⁻¹
B26	0.00012 s⁻¹
B27	0.00014 s⁻¹
B28	2.8e-05 s⁻¹
B29	9.1e-05 s⁻¹
B30	1e-07 s⁻¹
B31	0.00016 s⁻¹
B32	4e-05 s⁻¹
B33	7.9e-05 s⁻¹
